The results in this text go back to patent US6124449.

The target in data set [1] is TGF-beta1 (hTGF-beta1) (Homo sapiens) (UniProt P01137). Kind of data set: cell_activity. The following applies: 2'-F C and U; MLEC assay; sequence contains N; column inferred.
For data set [2] the target is unchanged. Kind of data set: filter.

TGF-beta1 (hTGF-beta1) (Homo sapiens), sequence (P01137 279-390): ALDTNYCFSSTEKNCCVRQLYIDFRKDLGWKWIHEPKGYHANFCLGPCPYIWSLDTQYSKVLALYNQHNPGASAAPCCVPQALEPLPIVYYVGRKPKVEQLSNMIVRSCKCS

In general, Ki refers to a dissociation constant, usually derived from enzyme kinetics or from competition with a known ligand. In data set [1], “GGGAGGACGAUGCGGGACCNUUGUNUGCGAUUCAACUCGUAGGUCUUCUCACGUGCAGACGACUCGCCCGA [40-75]” displayed a Ki of 2.25 nM. Broadly, the Kd is the free concentration of one partner at which half of the binding sites on the other are occupied at equilibrium, for simple one-to-one binding. Low values mean higher affinity, high ones lower affinity. As for “GGGAGGACGAUGCGGNNNNNNNNNNNNNNNNNNNNNNNNNNNNNNNNNNNNNNNNCAGACGACUCGCCCGA [random 40N7 RNA pool]”, the Kd in data set [2] (2'-F C and U (RNA transcript of template), random 2'-F RNA, DPBS, 1 mM MgCl2, 37 C) amounted to 10 nM. Regarding “GGGAGGACGAUGCGGUUAACCNUAAAUACGGCUUGANUUCUUCCGCAGACGACUCGCCCGA [30-19]”, the Kd in data set [2] (2'-F C and U, biphasic, Kd1 5.7±1.9 nM) was 0.346 nM.
